Laboratory results: article PMC10238197, “Deafness‐Associated ADGRV1 Mutation Impairs USH2A Stability through Improper Phosphorylation of WHRN and WDSUB1 Recruitment” (Advanced Science, 2023)

B1: Flag-WHRN (wild type) [mouse] / GFP-WDSUB1 (WD repeat, SAM, and U-box domain-containing protein 1) [mouse] (parent)
chain 1: MNAQLDGLSVSSSSTGSLGSAAAAAGGGGGAGLRLLSANVRQLHQALTALLSEPEREQFTHCLNAYHARRNVFDLVRTLRVLLDSPVKRRLLPMLRLVIPRSDQLLFDQYTAEGLYLPATTPYRQPAWAAPDGAGPGEVRLVSLRRAKAHEGLGFSIRGGSEHGVGIYVSLVEPGSLAEKEGLRVGDQILRVNDKSLARVTHAEAVKALKGSKKLVLSVYSAGRIPGGYVTNHIYTWVDPQGRSTSPPSSLPQPHGSTLRQREDDRRSTLHLLQSGDEKKVNLVLGDGRSLGLTIRGGAEYGLGIYITGVDPGSEAESSGLKVGDQILEVNGRSFLNILHDEAVKLLKSSRHLILTVKDVGRLPHARTTVDQTKWIASSRIGESVANSAGFPGDHTEEGTSKPGFYKGPAGSQVTLSSLGNQTRALLDDQARHLLTEQERATMMYYLAQYRGGTISVEAMVMALFELLNTHAKFSLLSEVRSIISPQDLDRFDHLVLRREIESMKARQPPGPGVGDTYSMVSYSDTGSSTGSHGTSTTVSSARERLLWLIDLMENTLDLEGTGETTQGSTNALPDVSVDDVKSPSEDLPGIKPPPPPPPLAQGHDRLLGQPRKPGREDPAPLSSAAHSGIVFSAPRNRSPPPGTAPTPGPSSAQDSPSSPIYASISHANPSSRKPLDTHLALVNQHPIGPFPRVQSPPHLKSPPAETPGAGACLPPPSPSEHPDAVGANQHFVLVEVHRPDSEPDVNEVRALPQTRTASTLSQLSDSGQTLSEDSGVDAGETEASTSGRGRQTASAKNKNGKEQPRTERTAEGANKPPGLLEPTSTLVRVRKSAATLGIAIEGGANTRQPLPRIVTIQRGGSAHNCGQLKVGHVILEVNGQTLRGKEHKEAARIIAEAFKTKERDYIDFLVTEFNVML
chain 2: MVRLIHTLADHGDDVSCCAFSAALLATCSLDKTIRLYSLSDFAELPYSPLKFHTYAVHCCCFSPSGHVLASCSTDGTTVLWSSHSGHTLTVLEQPGGSPVRVCCFSPDSAYLASGAADGSIALWNAQTYKLYRCGSVKDSSLVACAFSPDGGLFVTGSSGGDLTVWDDRMRCLHSEKAHDLGITCCSFSSQPLSGGEGLQSYQLASCGQDCEIKLWAVTITRVLGFELKYKSTLSGHCAPVLACAFSHDGKMLASGSVDKSVIIHGIGPQSVLHTLTQHTRYVTTCAFAPNTLLLATGSMDKTVNIWQFDLETPCQGSMNDPLKHFTEEWSEEDVSVWLRAQGLEDLVGIFRANNIDGKELLHLTKESLAGDLKIESLGLRSKVLRSIEELRAKMDSLSSGIPDEFICPITRELMKDPVIASDGYSYEREAMESWIHKKKRTSPMTNLALPSLVLTPNRTLKMAINRWLETHEK

Variants of: B1
Assay: co-immunoprecipitation (band intensity quantified)
Settings: with GFP-WDSUB1 (WD repeat, SAM, and U-box domain-containing protein 1) [mouse]; HEK293 cells; n = 3; parent: 1; read off a plot

ratio to parent	Variant
1	chain 1 S384E
2.6	chain 1 S156E S246E
2.1	chain 1 S246E

The next lines start with the variant.

Variant	ratio to parent
chain 1 S85E	1
chain 1 S37E	1
chain 1 S156E	1.8
